Consider 5 molecules from publication PMC4263763, “Crystal Structure of Calcium Binding Protein-5 from Entamoeba histolytica and Its Involvement in Initiation of Phagocytosis of Human Erythrocytes” (PLoS Pathogens, 2014).

In assay [1] the test system is EhCaBP5. The experiment in a line: SPR binding of EhCaBP5 (analyte) to immobilized myosin IQ motif peptides. Particulars: Biacore T200, peptide immobilized (2000 RU, CM4 chip), EhCaBP5 as analyte, pH 7.4. The arrangement: species or system Entamoeba histolytica. From the text:
The E. histolytica genome codes for two myosin, myosin I (accession number EAL48894) and myosin II (accession number EAL51645). Myosin I has one IQ motif and myosin II has two IQ motifs. To check the interaction between EhCaBP5 and myosin IQ motifs, we commercially synthesized (obtained) peptides of IQ motif of myosin 1B (unconventional myosin) (IQKAWKGYRNRKR) and second IQ motif of heavy chain myosin (myosin II) ([…]), which is expected to bind to ELC. For the binding study we used Biacore T200 apparatus (Biacore, GE Healthcare) at National Institute of Plant and Genome Research New Delhi, India. A total of 2000 resonance units (RU) of peptides were immobilized on a research grade S series CM4 sensor chip in 10 mM sodium acetate, pH 5.0 according to the manufacturer's amine coupling kit. After peptide immobilization, the surface was blocked with 1 M ethanolamine at pH 8.5, followed by regeneration using 50 mM NaOH. The interaction experiments were performed using buffer containing 10 mM HEPES pH 7.4, 150 mM NaCl and 0.2 mM Calcium chloride. We also performed interaction experiment in absence of Ca^2+ and supplementing 5 mM of EGTA in the above buffer. […] The association kinetics for EhCaBP5 was monitored for 300 seconds and dissociation was monitored for the next 300 seconds.
A general note: Surface plasmon resonance follows binding to a sensor surface in real time, without labels.

For assay [2], the system named is EhCaBP5. The experiment in a line: SPR binding of native and mutated IQ motif peptides (analyte) to immobilized EhCaBP5 (model validation). Set-up: species or system Entamoeba histolytica. The settings on record: peptide as analyte, 25°C. How it is done:
To validate EhCaBP5-IQ motif complex model, we obtained commercially synthesized two mutated Myosin 1B IQ motif peptide IQ-M1 A*A*KAWKGYRNRKR (where IQ is mutated to AA) and IQ-M2 IQKAWKGYD*ND*KD* (Where R is mutated to D). The EhCaBP5 was immobilized on sensor chip up to 500 resonance units and native myosin 1B IQ motif peptide and mutated IQ motif peptide were passed as analyte at concentration of […]. The data were recorded at 25°C and data analysis was performed using Biacore […] SPR Kinetics evaluation software.

Assay [3] addresses Entamoeba histolytica calcium binding protein-5 (EhCaBP5), recombinant (Entamoeba histolytica). The assay can be described thus: SPR; EhCaBP5 immobilised on sensor chip up to 500 RU; native and mutated IQ motif peptides as analyte at 25, 50, 75, 100 and 125 mM (so in the source); 25°C.
Assay [4] concerns the target IQ motif peptide of myosin 1B (native) (Entamoeba histolytica). The assay can be described thus: SPR.
The conditions of assay [5]: ITC; ref [17]; cited from earlier work. From the text: Overall, the molecule is divided in two globular lobes, where each lobe has four alpha helices connected by loops. The N-terminal lobe has one EF-hand motif with a calcium ion bound to the loop between two helices. The C-terminal lobe has two small anti-parallel beta strands along with four loops (Fig. 1A). Signature residues of an additional EF-hand motif are found in the C-terminal lobe (residues87 to 98). In the crystal structure these residues form a loop between two helices similar to that of a typical EF-hand but density for Ca^2+ is not observed. Consistent with the crystals structure, ...

The test system of assay [6] is F-actin. The experiment in a line: Co-sedimentation assay with F-actin. The settings on record: in vitro, pellet fraction containing F-actin. The assay is classed as binding.
The subject of assay [7] is myosin 1B. The assay can be described thus: Co-immunoprecipitation of myosin 1B from total cell lysate. The assay is classed as binding, Entamoeba histolytica. Particulars: immobilized anti-EhCaBP5 antibody, 800 µg E. histolytica lysate, 6 h at 4°C, with EGTA; western blot. How it is done:
Immunoprecipitation was carried out as described previously. Briefly, CNBr-activated Sepharose-4B beads (Pharmacia) were conjugated with anti-EhCaBP5 antibody. Crude immunoglobulins were collected from the immunized serum using 40% ammonium sulphate and subsequently dialysed in coupling buffer (bicarbonate buffer). Usually, 10 mg immunoglobulin protein was added per gram of CNBr-activated Sepharose-4B beads. The resin was mixed gently for 18 h at 4°C. The conjugated Sepharose beads were incubated with E. histolytica lysate for 6 h at 4°C. The beads were then washed thrice with wash buffer (10 mM Tris-Cl (pH 7.5), 150 mM NaCl, 1 mM imidazole, 1 mM magnesium acetate, 2 mM β-ME and protease inhibitor cocktail). Ca^2+ and EGTA were maintained throughout the process as required. After incubation the beads were washed sequentially with 60 mM Tris-Cl (pH 6.8), 100 mM NaCl and with 60 mM Tris-Cl (pH 6.8). The pellet was suspended in 2× SDS polyacrylamide gel electrophoresis (PAGE) buffer and boiled for 5 min followed by centrifugation for 5 min. The proteins were then analysed by western blotting.
In general terms: A western blot detects proteins with antibodies after separation by electrophoresis.

Values joined by “and” are separate entries in the source; they are usually repeats but may differ in a detail not shown here. Identical values can stand only once. “Also recorded” adds a separate entry of the source.

Take LQACARAFAARKHFS [myosin II IQ motif]: in assay [1], the “binding to EhCaBP5 (in words)” value was “does not bind”.
For the molecule “A*A*KAWKGYRNRKR [IQ-M1, mutated Myosin 1B IQ motif peptide IQ-M1 (where IQ is mutated to AA)]”, the “change in Kd versus native peptide (in words)” value in assay [2] was “could not find any significant change in Kd value”.
As to IQ motif peptide of myosin 1B (native), the Kd in assay [3] turned out to be 0.64 nM.
Turning to “Entamoeba histolytica calcium binding protein-5 (EhCaBP5), recombinant (natural protein)”, in assay [4], the Kd was 2.4 nM and 5.4 nM.

B1: EhCaBP5: calcium binding protein 5 from E. histolytica (accession number EAL46660) (protein)
chain: MQKHNEDLKESFLLFDGDGDGYLTLNEFESLVRVLGVVMETSAIASTYNSNSKVRGMSYELFTSCFSQLKTKSFNKDEIKTAINVLDKDKKGFIPAIELRRILSTIGDNMEQKEITDLFTFMGIDEQGVVKVDDFINQLMTVFK
For B1, the “number of Ca^2+ binding sites” value in assay [5] was “one”. In assay [6], the “co-sedimentation with / binding to F-actin (in words)” value is given as “No significant amount of EhCaBP5 was observed in the pellet fraction containing F-actin; also recorded: does not bind F-actin”. Also, the “co-precipitation of myosin 1B (in words)” value in assay [7] was “precipitated myosin 1B along with EhCaBP5 even in the presence of EGTA”.

The term Kd denotes the free concentration of one partner at which half of the binding sites on the other are occupied at equilibrium, for simple one-to-one binding.
